Measured values from paper doi:10.1101/157495 (bioRxiv, 2017).

Molecular target: the molecule itself
Assay: SEC

B1: cyclohexadienyl dehydratase from Pseudomonas aeruginosa (PaCDT) (enzyme, UniProt Q01269 26-268, looked up)
chain: QESRLDRILESGVLRVATTGDYKPFSYRTEEGGYAGFDVDMAQRLAESLGAKLVVVPTSWPNLMRDFADDRFDIAMSGISINLERQRQAYFSIPYLRDGKTPITLCSEEARFQTLEQIDQPGVTAIVNPGGTNEKFARANLKKARILVHPDNVTIFQQIVDGKADLMMTDAIEARLQSRLHPELCAVHPQQPFDFAEKAYLLPRDEAFKRYVDQWLHIAEQSGLLRQRMEHWLEYRWPTAHGK
- stoichiometry N: 3
